Experimental data published in patent US20250262210A1 (TRUSTEES OF COLUMBIA UNIVERSITY IN THE CITY OF NEW YORK, published 2025).
Changes are numbered by the printed parent chain. Each block holds one binder with its values, some of them ahead of it.

Experiments:
LZTR1 R810W-FLAG = biological target: T1, LZTR1 R810W-FLAG (human, UniProt Q8N653 1-840); assay: IP/MS, LZTR1 R810W-FLAG, U87
T1 construct: Stably expressed in U87 cells by lentivirus; also called LZTR1-FLAG-R810W; LZTR1 RW; not shown: FLAG tag
T1 sequence (looked up): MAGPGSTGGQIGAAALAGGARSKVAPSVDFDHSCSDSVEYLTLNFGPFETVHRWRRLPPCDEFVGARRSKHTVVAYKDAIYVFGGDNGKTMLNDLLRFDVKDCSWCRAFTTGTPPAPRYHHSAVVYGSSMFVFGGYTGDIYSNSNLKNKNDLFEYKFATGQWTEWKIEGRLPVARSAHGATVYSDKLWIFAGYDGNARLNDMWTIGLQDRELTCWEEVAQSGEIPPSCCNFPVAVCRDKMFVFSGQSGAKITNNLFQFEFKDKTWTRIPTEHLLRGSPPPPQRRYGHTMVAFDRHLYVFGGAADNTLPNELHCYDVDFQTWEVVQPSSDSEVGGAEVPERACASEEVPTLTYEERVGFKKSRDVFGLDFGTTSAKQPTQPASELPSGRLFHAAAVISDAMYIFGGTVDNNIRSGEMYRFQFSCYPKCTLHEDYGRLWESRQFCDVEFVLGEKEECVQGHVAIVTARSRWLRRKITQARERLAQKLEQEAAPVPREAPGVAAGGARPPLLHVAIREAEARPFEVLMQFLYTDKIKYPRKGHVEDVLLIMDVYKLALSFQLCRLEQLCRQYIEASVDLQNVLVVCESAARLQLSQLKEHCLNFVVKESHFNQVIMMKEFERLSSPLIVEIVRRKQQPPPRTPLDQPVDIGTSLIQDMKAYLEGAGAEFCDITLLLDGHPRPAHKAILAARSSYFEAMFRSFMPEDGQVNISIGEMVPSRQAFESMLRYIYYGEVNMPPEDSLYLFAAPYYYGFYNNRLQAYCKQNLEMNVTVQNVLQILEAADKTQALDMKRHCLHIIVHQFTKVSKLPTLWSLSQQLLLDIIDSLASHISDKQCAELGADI
Method: (§1) Lysates were immunoprecipitated with FLAG affinity matrix and eluted with FLAG peptide. […] Protein gel slices were excised and in-gel digestion performed as previously described (83), with minor modifications. Gel slices were washed with 1:1 A cetonitrile and 100 mM ammonium bicarbonate for 30 min then dehydrated with 100% acetonitrile for 10 min until shrunk. The excess acetonitrile was then removed and the slices dried in speed-vacuum at room temperature for 10 min. Gel slices were reduced with 5 mM DTT for 30 min at 56° C. in an air thermostat, cooled down to room temperature, and alkylated with 11 mM IAA for 30 min with no light. Gel slices were then washed with 100 mM of ammonium bicarbonate and 100% acetonitrile for 10 min each. Excess acetonitrile was removed and dried in a speed-vacuum for 10 min at room temperature and the gel slices were re-hydrated in a solution of 25 ng/μl trypsin in 50 mM ammonium bicarbonate for 30 min on ice and digested overnight at 37° C. in an air thermostat. Digested peptides were collected and further extracted from gel slices in extraction buffer (1:2 ratio by volume of 5% formic acid:acetonitrile) at high speed, shaking in an air thermostat. The supernatants from both extractions were combined and dried in a speed-vacuum. Peptides were dissolved in 3% acetonitrile/0.1% formic acid. Desalted peptides were injected in an EASY-Spray™ PepMap™ RSLC C18 50 cm×[…] column (Thermo Scientific) connected to an Orbitrap Fusion™ Tribrid™ (Thermo Scientific) as described in “Global ubiquitylation enrichment” section. The following modifications were used for protein identification and quantification: oxidation of methionine (M), acetylation of the protein N-terminus, and deamination for asparagine or glutamine (NQ). Results obtained from MaxQuant were assembled in Scaffold for data visualization.

LZTR1-FLAG = biological target: T2, LZTR1-FLAG (human, UniProt Q8N653 1-840); assay: IP/MS, LZTR1 wild type-FLAG, U87
T2 construct: Expressed in HEK 293T, HeLa or U87 cells; used as cell lysate; also called LZTR1 wild type-FLAG; LZTR1 WT; not shown: FLAG tag at the C-terminus
T2 sequence (looked up): T1 sequence (looked up) with W810R
Method: as §1

binding result (LZTR1 R810W-FLAG): binds | binding result (LZTR1-FLAG): binds
B1: ADAM 15 (other, human, UniProt Q13444 207-863, looked up)
chain: DVVTETKTVELVIVADHSEAQKYRDFQHLLNRTLEVALLLDTFFRPLNVRVALVGLEAWTQRDLVEISPNPAVTLENFLHWRRAHLLPRLPHDSAQLVTGTSFSGPTVGMAIQNSICSPDFSGGVNMDHSTSILGVASSIAHELGHSLGLDHDLPGNSCPCPGPAPAKTCIMEASTDFLPGLNFSNCSRRALEKALLDGMGSCLFERLPSLPPMAAFCGNMFVEPGEQCDCGFLDDCVDPCCDSLTCQLRPGAQCASDGPCCQNCQLRPSGWQCRPTRGDCDLPEFCPGDSSQCPPDVSLGDGEPCAGGQAVCMHGRCASYAQQCQSLWGPGAQPAAPLCLQTANTRGNAFGSCGRNPSGSYVSCTPRDAICGQLQCQTGRTQPLLGSIRDLLWETIDVNGTELNCSWVHLDLGSDVAQPLLTLPGTACGPGLVCIDHRCQRVDLLGAQECRSKCHGHGVCDSNRHCYCEEGWAPPDCTTQLKATSSLTTGLLLSLLVLLVLVMLGASYWYRARLHQRLCQLKGPTCQYRAAQSGPSERPGPPQRALLARGTKQASALSFPAPPSRPLPPDPVSKRLQAELADRPNPPTRPLPADPVVRSPKSQGPAKPPPPRKPLPADPQGRCPSGDLPGPGAGIPPLVVPSRPAPPPPTVSSLYL
notes: Printed as ADAM 15; read as ADAM15

binding result (LZTR1 R810W-FLAG): binds | binding result (LZTR1-FLAG): binds
B2: AHR (other, human, UniProt P35869 11-848, looked up)
chain: ASRKRRKPVQKTVKPIPAEGIKSNPSKRHRDRLNTELDRLASLLPFPQDVINKLDKLSVLRLSVSYLRAKSFFDVALKSSPTERNGGQDNCRAANFREGLNLQEGEFLLQALNGFVLVVTTDALVFYASSTIQDYLGFQQSDVIHQSVYELIHTEDRAEFQRQLHWALNPSQCTESGQGIEEATGLPQTVVCYNPDQIPPENSPLMERCFICRLRCLLDNSSGFLAMNFQGKLKYLHGQKKKGKDGSILPPQLALFAIATPLQPPSILEIRTKNFIFRTKHKLDFTPIGCDAKGRIVLGYTEAELCTRGSGYQFIHAADMLYCAESHIRMIKTGESGMIVFRLLTKNNRWTWVQSNARLLYKNGRPDYIIVTQRPLTDEEGTEHLRKRNTKLPFMFTTGEAVLYEATNPFPAIMDPLPLRTKNGTSGKDSATTSTLSKDSLNPSSLLAAMMQQDESIYLYPASSTSSTAPFENNFFNESMNECRNWQDNTAPMGNDTILKHEQIDQPQDVNSFAGGHPGLFQDSKNSDLYSIMKNLGIDFEDIRHMQNEKFFRNDFSGEVDFRDIDLTDEILTYVQDSLSKSPFIPSDYQQQQSLALNSSCMVQEHLHLEQQQQHHQKQVVVEPQQQLCQKMKHMQVNGMFENWNSNQFVPFNCPQQDPQQYNVFTDLHGISQEFPYKSEMDSMPYTQNFISCNQPVLPQHSKCTELDYPMGSFEPSPYPTTSSLEDFVTCLQLPENQKHGLNPQSAIITPQTCYAGAVSMYQCQPEPQHTHVGQMQYNPVLPGQQAFLNKFQNGVLNETYPAELNNINNTQTTTHLQPLHHPSEARPFPDLTSSGFL

binding result (LZTR1 R810W-FLAG): binds
B3: ARAF (other, human, UniProt P10398 1-606, looked up)
chain: MEPPRGPPANGAEPSRAVGTVKVYLPNKQRTVVTVRDGMSVYDSLDKALKVRGLNQDCCVVYRLIKGRKTVTAWDTAIAPLDGEELIVEVLEDVPLTMHNFVRKTFFSLAFCDFCLKFLFHGFRCQTCGYKFHQHCSSKVPTVCVDMSTNRQQFYHSVQDLSGGSRQHEAPSNRPLNELLTPQGPSPRTQHCDPEHFPFPAPANAPLQRIRSTSTPNVHMVSTTAPMDSNLIQLTGQSFSTDAAGSRGGSDGTPRGSPSPASVSSGRKSPHSKSPAEQRERKSLADDKKKVKNLGYRDSGYYWEVPPSEVQLLKRIGTGSFGTVFRGRWHGDVAVKVLKVSQPTAEQAQAFKNEMQVLRKTRHVNILLFMGFMTRPGFAIITQWCEGSSLYHHLHVADTRFDMVQLIDVARQTAQGMDYLHAKNIIHRDLKSNNIFLHEGLTVKIGDFGLATVKTRWSGAQPLEQPSGSVLWMAAEVIRMQDPNPYSFQSDVYAYGVVLYELMTGSLPYSHIGCRDQIIFMVGRGYLSPDLSKISSNCPKAMRRLLSDCLKFQREERPLFPQILATIELLQRSLPKIERSASEPSLHRTQADELPACLLSAARLVP
